The record followed here is patent publication US20250019427A1.

For test [1], the target named is T1, Human GDF15 Fc (human) (UniProt Q99988).
T1 sequence (chain, biotinylated (EZ-Link Sulfo-NHS-Biotinylation Kit) where printed as biotinylated): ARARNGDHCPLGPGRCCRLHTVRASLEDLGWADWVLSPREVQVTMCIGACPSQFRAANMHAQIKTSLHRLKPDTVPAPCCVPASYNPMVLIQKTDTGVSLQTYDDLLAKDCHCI
Description: Octet BLI, IgG on tip, avid.

Test [2] deals with T1, Human GDF15 Fc (human). Nature of the test: SPR Biacore, Fab monovalent.
The target in test [3] is T1, Human GDF15 Fc (human). Description: Octet BLI, Fab monovalent.

B1: Clone K IgG (antibody, V domains shown)
VH: QVQLVQSGAEVKKPGASVKVSCKASGYTFTNEGISWVRQAPGQGLEWMGWISAYTADTFYAQKLQGRVTMTTDTSTSTAYMELRSLRSDDTAVYYCARTRHDTSGLRFDYWGQGTLVTVSS
VL: DIQMTQSPSSVSASVGDRVTITCRASQGIDSWLAWYQQKPGKAPKLLIYAASSLQSGVPSRFSGSGSGTDFTLTISSLQPEDFATYYCQQVHSFPITFGGGTKVEIKR
Regarding B1, the Kd in test [1] amounted to 0.271 nM.

B2: Clone L IgG (antibody, V domains shown)
VH: QVQLVQSGAEVKKPGASVKVSCKASGYTFASYDIIWVRQAPGQGLEWMGWISALSGDTVYAQKLQGRVTMTTDTSTSTAYMELRSLRSDDTAVYYCARTRHDTSGIRFDYWGQGTLVTVSS
VL: DIQMTQSPSSVSASVGDRVTITCRASQGIDSWLAWYQQKPGKAPKLLIYAASSLQSGVPSRFSGSGSGTDFTLTISSLQPEDFATYYCQQVHSFPITFGGGTKVEIKR
For the molecule B2, the Kd in test [1] was determined as 0.325 nM.

B3: Clone O IgG (antibody, V domains shown)
VH: QVQLVQSGAEVKKPGATVKVSCKASGYTFDSLGMSWVRQAPGQGLEWMGYISTYSGDTVYAQKLQGRVTMTTDTSTSTAYMELRSLRSDDTAVYYCARESGQQVSALDPWGQGTLVTVSS
VL: DIQMTQSPSSVSASVGDRVTITCRASQGISRWLAWYQQKPGKAPKLLIYAASSLQSGVPSRFSGSGSGTDFTLTISSLQPEDFATYYCQQGASFPLTFGGGTKVEIKR
B3 returned a Kd in test [1] of 0.379 nM.

B4: Clone P IgG (antibody, V domains shown)
VH: QVQLVQSGAEVKKPGATVKVSCKASGYTFDSYGIHWVRQAPGQGLEWMGWITAYSGDTVYAQKLQGRVTMTTDTSTSTAYMELRSLRSDDTAVYYCARESGQTSSALGPWGQGTLVTVSS
VL: DIQMTQSPSSVSASVGDRVTITCRASQGISRWLAWYQQKPGKAPKLLIYAASSLQSGVPSRFSGSGSGTDFTLTISSLQPEDFATYYCQQGASFPLTFGGGTKVEIKR
In test [1], B4 displayed a Kd of 0.274 nM.

B5: Clone E Fab (Fab, V domains shown)
VH: QVQLVQSGAEVKKPGASVKVSCKASGYTFTSYGINWVRQAPGQGLEWMGWITAYSGDTNYAQKLQGRVTMTTDTSTSTAYMELRSLRSDDTAVYYCARGPGQYADVDVWGQGTMVTVSS
VL: DIQMTQSPSSVSASVGDRVTITCRASQGISSWLAWYQQKPGKAPKLLIYAASSLQSGVPSRFSGSGSGTDFTLTISSLQPEDFATYYCQQANSFPITFGGGTKVEIK
In test [2], B5 showed a Kd of 0.0331 nM, a koff of 8.71e-05 s⁻¹ and an on-rate constant (kon) of 2.63e+06 M⁻¹ s⁻¹. In test [3], this molecule displayed a Kd of 0.921 nM.

B6: Clone S Fab (Fab, V domains shown)
VH: QVQLVQSGAEVKKPGASVKVSCKASGYTFTSYGINWVRQAPGQGLEWMGWITAYSGDTNYAQKLQGRVTMTTDTSTSTAYMELRSLRSDDTAVYYCARGPGQYADVDVWGQGTMVTVSS
VL: DIQLTQSPSSVSASVGDRVTITCRASQGISPWLAWYQQKPGKAPKLLIYAASSLQSGVPSRFSGSGSGTDFTLTISSLQPEDFATYYCQQANSFPITFGGGTKVEIK
For the molecule B6, in test [2], the equilibrium dissociation constant (Kd) was determined as 0.0369 nM, the koff worked out at 4.93e-05 s⁻¹ and the kon was 1.34e+06 M⁻¹ s⁻¹. Besides, the Kd in test [3] came out at 0.48 nM.

B7: Clone J Fab (Fab, V domains shown)
VH: QVQLVQSGAEVKKPGASVKVSCKASGYTFTSYGINWVRQAPGQGLEWMGWIDAYSGSTNYAQKLQGRVTMTTDTSTSTAYMELRSLRSDDTAVYYCARGPGQYADVDVWGQGTMVTVSS
VL: DIQMTQSPSSVSASVGDRVTITCRASQGISSWLAWYQQKPGKAPKLLIYAASSLQSGVPSRFSGSGSGTDFTLTISSLQPEDFATYYCQQANSFPITFGGGTKVEIK
In test [2], B7 showed a Kd of 0.0884 nM, a koff of 0.000404 s⁻¹ and an on-rate (kon) of 4.57e+06 M⁻¹ s⁻¹. The same molecule came in with a Kd in test [3] of 1.28 nM.

B8: Clone K Fab (Fab, V domains shown)
VH: QVQLVQSGAEVKKPGASVKVSCKASGYTFTNEGISWVRQAPGQGLEWMGWISAYTADTFYAQKLQGRVTMTTDTSTSTAYMELRSLRSDDTAVYYCARTRHDTSGLRFDYWGQGTLVTVSS
VL: DIQMTQSPSSVSASVGDRVTITCRASQGIDSWLAWYQQKPGKAPKLLIYAASSLQSGVPSRFSGSGSGTDFTLTISSLQPEDFATYYCQQVHSFPITFGGGTKVEIK
Take B8: in test [2], the dissociation constant Kd amounted to 0.23 nM, the off-rate (koff) was 0.00112 s⁻¹ and the kon turned out to be 4.87e+06 M⁻¹ s⁻¹. The molecule also had a Kd in test [3] of 2.11 nM.

B9: Clone I Fab (Fab, V domains shown)
VH: QVQLVQSGAEVKKPGASVKVSCKASGYTFTDEGINWVRQAPGQGLEWMGWITAYSGDTVYAQKLQGRVTMTTDTSTSTAYMELRSLRSDDTAVYYCARGPGQYADVDVWGQGTMVTVSS
VL: DIQMTQSPSSVSASVGDRVTITCRASQGISSWLAWYQQKPGKAPKLLIYAASSLQSGVPSRFSGSGSGTDFTLTISSLQPEDFATYYCQQANSFPITFGGGTKVEIK
As for B9, in test [2], the Kd amounted to 0.0672 nM, the off-rate constant (koff) came to 0.000259 s⁻¹ and the association rate constant (kon) came to 3.85e+06 M⁻¹ s⁻¹. For the same molecule, the Kd in test [3] was 1.25 nM.

B10: Clone E IgG (antibody, V domains shown)
VH: QVQLVQSGAEVKKPGASVKVSCKASGYTFTSYGINWVRQAPGQGLEWMGWITAYSGDTNYAQKLQGRVTMTTDTSTSTAYMELRSLRSDDTAVYYCARGPGQYADVDVWGQGTMVTVSS
VL: DIQMTQSPSSVSASVGDRVTITCRASQGISSWLAWYQQKPGKAPKLLIYAASSLQSGVPSRFSGSGSGTDFTLTISSLQPEDFATYYCQQANSFPITFGGGTKVEIKR
Take B10: the Kd in test [1] stood at 0.278 nM.

B11: Clone P Fab (Fab, V domains shown)
VH: QVQLVQSGAEVKKPGATVKVSCKASGYTFDSYGIHWVRQAPGQGLEWMGWITAYSGDTVYAQKLQGRVTMTTDTSTSTAYMELRSLRSDDTAVYYCARESGQTSSALGPWGQGTLVTVSS
VL: DIQMTQSPSSVSASVGDRVTITCRASQGISRWLAWYQQKPGKAPKLLIYAASSLQSGVPSRFSGSGSGTDFTLTISSLQPEDFATYYCQQGASFPLTFGGGTKVEIK
On to B11, for which, in test [2], the Kd amounted to 0.126 nM, the dissociation rate constant (koff) was found to be 0.0021 s⁻¹ and the kon was 1.66e+07 M⁻¹ s⁻¹. Moreover, the Kd in test [3] was 3.68 nM.

B12: Clone J IgG (antibody, V domains shown)
VH: QVQLVQSGAEVKKPGASVKVSCKASGYTFTSYGINWVRQAPGQGLEWMGWIDAYSGSTNYAQKLQGRVTMTTDTSTSTAYMELRSLRSDDTAVYYCARGPGQYADVDVWGQGTMVTVSS
VL: DIQMTQSPSSVSASVGDRVTITCRASQGISSWLAWYQQKPGKAPKLLIYAASSLQSGVPSRFSGSGSGTDFTLTISSLQPEDFATYYCQQANSFPITFGGGTKVEIKR
On to B12, for which the Kd in test [1] is 0.276 nM.

B13: Clone T Fab (Fab, V domains shown)
VH: QVQLVQSGAEVKKPGASVKVSCKASGYTFTSYGINWVRQAPGQGLEWMGWITAYSGDTNYAQKLQGRVTMTTDTSTSTAYMELRSLRSDDTAVYYCARGPGQYADVDVWGQGTMVTVSS
VL: DIQMTQSPSSVSASVGDRVTITCRASQGISSWLAWYQQKPGKAPKLLIYAASSLQSGVPSRFSGSGSGTDFTLTISSLQPEDFATYYCQQASQFPITFGGGTKVEIK
In test [2], B13 had an equilibrium dissociation constant (Kd) of 0.0411 nM, an off-rate (koff) of 4.52e-05 s⁻¹ and an association rate constant (kon) of 1.1e+06 M⁻¹ s⁻¹. Further, in test [3], the equilibrium dissociation constant (Kd) is 0.613 nM.

B14: Clone L Fab (Fab, V domains shown)
VH: QVQLVQSGAEVKKPGASVKVSCKASGYTFASYDIIWVRQAPGQGLEWMGWISALSGDTVYAQKLQGRVTMTTDTSTSTAYMELRSLRSDDTAVYYCARTRHDTSGIRFDYWGQGTLVTVSS
VL: DIQMTQSPSSVSASVGDRVTITCRASQGIDSWLAWYQQKPGKAPKLLIYAASSLQSGVPSRFSGSGSGTDFTLTISSLQPEDFATYYCQQVHSFPITFGGGTKVEIK
B14: in test [2], the Kd came to 0.144 nM, the koff amounted to 0.000576 s⁻¹ and the kon worked out at 3.99e+06 M⁻¹ s⁻¹. In test [3], the Kd stood at 1.58 nM.

B15: Clone O Fab (Fab, V domains shown)
VH: QVQLVQSGAEVKKPGATVKVSCKASGYTFDSLGMSWVRQAPGQGLEWMGYISTYSGDTVYAQKLQGRVTMTTDTSTSTAYMELRSLRSDDTAVYYCARESGQQVSALDPWGQGTLVTVSS
VL: DIQMTQSPSSVSASVGDRVTITCRASQGISRWLAWYQQKPGKAPKLLIYAASSLQSGVPSRFSGSGSGTDFTLTISSLQPEDFATYYCQQGASFPLTFGGGTKVEIK
In test [2], B15 returned a Kd of 0.0341 nM, a dissociation rate constant (koff) of 7.11e-05 s⁻¹ and a kon of 2.08e+06 M⁻¹ s⁻¹. Also, in test [3], the dissociation constant Kd was determined as 0.216 nM.

B16: Clone I IgG (antibody, V domains shown)
VH: QVQLVQSGAEVKKPGASVKVSCKASGYTFTDEGINWVRQAPGQGLEWMGWITAYSGDTVYAQKLQGRVTMTTDTSTSTAYMELRSLRSDDTAVYYCARGPGQYADVDVWGQGTMVTVSS
VL: DIQMTQSPSSVSASVGDRVTITCRASQGISSWLAWYQQKPGKAPKLLIYAASSLQSGVPSRFSGSGSGTDFTLTISSLQPEDFATYYCQQANSFPITFGGGTKVEIKR
B16: the equilibrium dissociation constant (Kd) in test [1] came out at 0.262 nM.
